Experimental data from publication PMC6147784, “Molecular mechanism of the Escherichia coli AhpC in the function of a chaperone under heat-shock conditions” (Scientific Reports, 2018).

B1: Escherichia coli alkyl hydroperoxide reductase subunit C (EcAhpC), His-tagged recombinant wild type (protein)
chain: MSLINTKIKPFKNQAFKNGEFIEITEKDTEGRWSVFFFYPADFTFVCPTELGDVADHYEELQKLGVDVYAVSTDTHFTHKAWHSSSETIAKIKYAMIGDPTGALTRNFDNMREDEGLADRATFVVDPQGIIQAIEVTAEGIGRDASDLLRKIKAAQYVASHPGEVCPAKWKEGEATLAPSLDLVGKI
B2: Escherichia coli alkyl hydroperoxide reductase subunit C (EcAhpC), His-tagged recombinant wild type (enzyme, UniProt P0AE08 1-187, looked up)
chain: B1 chain
modifications: disulfide bonded (referred as oxidized form) as purified; reduced with DTT (kept with TCEP or DTT) in the assays marked as reduced
notes: Alkyl hydroperoxide reductase subunit C (AhpC) of Escherichia coli, the entire enzyme; the C-terminal extension is printed as aa 173-187; The same construct was used as the oxidized (intermolecular disulphide) and as the reduced form; the assay's format tells which; also called WT EcAhpC; oxidized EcAhpC; source: E. coli, purified (Ni2+-NTA, gel filtration on Superdex 75)

Legend:
P0AE08 [1] = assay: SEC; 10 µM protein (oxidized form) incubated at 53 °C for 60 min in 50 mM phosphate pH 7.0, cooled to room temperature, centrifuged; Superdex 200 10/300 GL in 50 mM Tris pH 7; dimers to HMW oligomers
P0AE08 [2] = assay: SEC; 10 µM reduced EcAhpC (pre-reduced with 20 mM DTT, desalted) incubated at 53 °C for 60 min in 50 mM phosphate pH 7.0 with 1 mM TCEP, centrifuged; Superdex 200 10/300 GL; to HMW oligomers
P0AE08 [3] = assay: SEC; 10 µM oxidized EcAhpC incubated at 50 °C for 60 min in 50 mM phosphate pH 7.0, cooled to room temperature, centrifuged; Superdex 200 10/300 GL in 50 mM Tris pH 7; dimers to HMW oligomers
P0AE08 [4] = assay: SEC; 10 µM oxidized EcAhpC incubated at 48 °C for 60 min in 50 mM phosphate pH 7.0, cooled to room temperature, centrifuged; Superdex 200 10/300 GL in 50 mM Tris pH 7; dimers to HMW oligomers
[5] = molecular target: the molecule itself; assay: dynamic light scattering; 1 mg/ml (50 µM) reduced EcAhpC (5 mM DTT) in 50 mM phosphate pH 7.0, equilibrated 10 min at 25 °C
[6] = molecular target: the molecule itself; assay: SEC; 10 µM protein (oxidized form) incubated at 25 °C for 60 min in 50 mM phosphate pH 7.0, centrifuged; Superdex 200 10/300 GL in 50 mM Tris pH 7 at room temperature; mass estimated from standards

| Protein | peak ratio (8.0 ml HMW peak to 15.5 ml dimer peak) (P0AE08 [1]) | peak ratio (8 ml HMW peak to 16.5 ml peak) (P0AE08 [2]) | peak ratio (8.0 ml HMW peak to 15.5 ml dimer peak) (P0AE08 [3]) | peak ratio (8.0 ml HMW peak to 15.5 ml dimer peak) (P0AE08 [4]) | stoichiometry N [5] | stoichiometry N [6] |
| --- | --- | --- | --- | --- | --- | --- |
| B1 | 0.9:1 | about 10:1 | 0.2:1 | 0.02:1 | – | – |
| B2 | – | – | – | – | 10 | 2 |
